Experimental data taken from the supplement of paper PMC10065799, “High-throughput profiling of sequence recognition by tyrosine kinases and SH2 domains using bacterial peptide display” (eLife, 2023).

test system: AncSZ; test: phosphorylation enrichment, bacterial display (enrichment ratio); higher = better substrate or ligand; peptides without Tyr show the background
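Note: 11-residue human phosphosite peptides and single-mutation variants displayed on the E. coli surface, counted by deep sequencing, each peptide's frequency after selection divided by its frequency in the unselected input library; frequency after pTyr selection over input frequency; kinase dosed for 20-30% of maximal phosphorylation in three min.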

| Sequence | phosphorylation enrichment |
| --- | --- |
| HQPGEYLFHAE [FLT3_Y416_I417L] | 1.09 |
| QGIIIYRAAFF [SLC25A4_Y187_YF] | 1.21 |
| ERDFTYEELLN [EIF2S2_Y176_YF] | 1.23 |
| LLNAIYLSAKW [SERPING1_Y294] | 1.61 |
| KPLMPSMRFSR [SMARCE1_Y73_Y73S_YF] | 0.828 |
| ACQSLYGGFVE [MVD_Y164_R161Q] | 0.949 |
| REATAYLHGRL [AGXT_Y297_A295T] | 0.665 |
| CTTIHYNYMCS [TP53_Y234_N239S] | 0.848 |
| MSYDRYMAVCH [OR2A5_Y123_I126V] | 0.867 |
| KILGTYFETGS [PAX2_Y72_R71T_YF] | 0.833 |
| RRGFLYDSDEE [MCM2_Y137_L135F] | 0.629 |
| FLAAIYPTVGQ [NF1_Y2508_T2507I_YF] | 0.724 |
| FSKDNYKRVTG [PANK2_Y405_YF] | 0.397 |
| YGLQAYTEVKT [ALDH2_Y502] | 1.27 |
| QGGRHYMMIVD [GAA_Y438_R437H] | 1.01 |
| ILDEAYVMAGV [ERBB2_Y772] | 1.11 |
| HSDFQYGQRSQ [PKP2_Y168_S169G_YF] | 0.641 |
| DIMDLYNQPEL [IL36A_Y96_P101L] | 1.54 |
| VYSATYHPDHW [EFCAB12_Y544_P541S] | 1.02 |
| AVEDQYYCVDC [FHL1_Y207] | 2.07 |
| EEEFFYEKAIL [BCCIP_Y257] | 1.93 |
| YSMGCYEISLE [HMGCL_Y198_G203E] | 2.01 |
| DILASYLDKVR [KRT12_Y139_R135I] | 0.54 |
| AVARMYGVLPW [PLP1_Y207_D203V] | 0.689 |
| LVQAEYWRDPI [PPT1_Y185_H187R] | 1.55 |
| FGSVDYWEKFF [EEF1AKNMT_Y16] | 1.16 |
| AEVIWYKGDEE | 1.26 |
| EKNANYKEGTY [CLRN1_Y171_I168N] | 0.517 |
| QLPATYMNLGP [MST1R_Y1360] | 0.547 |

biological target: EPHB1 (UniProt P54762); test: as above
Sequence (P54762 whole entry, looked up): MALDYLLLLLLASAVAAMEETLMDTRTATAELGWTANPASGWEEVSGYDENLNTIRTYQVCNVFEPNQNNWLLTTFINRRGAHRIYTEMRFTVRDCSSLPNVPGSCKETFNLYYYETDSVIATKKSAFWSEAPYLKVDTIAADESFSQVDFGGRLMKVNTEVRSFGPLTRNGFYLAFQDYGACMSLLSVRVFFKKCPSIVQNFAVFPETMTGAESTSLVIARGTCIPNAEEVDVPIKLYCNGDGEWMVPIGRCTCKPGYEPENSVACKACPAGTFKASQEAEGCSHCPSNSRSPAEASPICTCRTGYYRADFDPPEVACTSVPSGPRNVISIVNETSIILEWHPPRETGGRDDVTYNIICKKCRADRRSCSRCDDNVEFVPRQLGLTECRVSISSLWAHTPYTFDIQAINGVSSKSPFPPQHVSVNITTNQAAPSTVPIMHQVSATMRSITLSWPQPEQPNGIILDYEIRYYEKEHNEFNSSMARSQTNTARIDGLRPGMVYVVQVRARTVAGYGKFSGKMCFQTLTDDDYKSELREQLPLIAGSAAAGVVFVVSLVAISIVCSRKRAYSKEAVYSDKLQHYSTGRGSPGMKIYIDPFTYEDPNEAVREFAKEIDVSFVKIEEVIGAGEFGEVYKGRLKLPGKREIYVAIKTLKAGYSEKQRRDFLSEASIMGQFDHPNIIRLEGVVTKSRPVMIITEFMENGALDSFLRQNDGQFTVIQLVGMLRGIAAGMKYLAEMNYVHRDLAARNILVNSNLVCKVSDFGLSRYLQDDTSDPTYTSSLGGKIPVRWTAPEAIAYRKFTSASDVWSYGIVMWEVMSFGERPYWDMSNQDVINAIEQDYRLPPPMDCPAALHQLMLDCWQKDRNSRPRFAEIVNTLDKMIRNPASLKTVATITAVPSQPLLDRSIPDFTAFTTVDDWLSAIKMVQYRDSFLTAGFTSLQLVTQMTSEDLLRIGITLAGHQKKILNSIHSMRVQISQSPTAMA

| Sequence | phosphorylation enrichment |
| --- | --- |
| HQPGEYLFHAE [FLT3_Y416_I417L] | 0.527 |
| QGIIIYRAAFF [SLC25A4_Y187_YF] | 0.605 |
| ERDFTYEELLN [EIF2S2_Y176_YF] | 0.628 |
| LLNAIYLSAKW [SERPING1_Y294] | 1.3 |
| KPLMPSMRFSR [SMARCE1_Y73_Y73S_YF] | 0.392 |
| ACQSLYGGFVE [MVD_Y164_R161Q] | 0.719 |
| REATAYLHGRL [AGXT_Y297_A295T] | 0.539 |
| CTTIHYNYMCS [TP53_Y234_N239S] | 0.992 |
| MSYDRYMAVCH [OR2A5_Y123_I126V] | 0.879 |
| KILGTYFETGS [PAX2_Y72_R71T_YF] | 0.491 |
| RRGFLYDSDEE [MCM2_Y137_L135F] | 0.397 |
| FLAAIYPTVGQ [NF1_Y2508_T2507I_YF] | 0.58 |
| FSKDNYKRVTG [PANK2_Y405_YF] | 0.409 |
| YGLQAYTEVKT [ALDH2_Y502] | 0.721 |
| QGGRHYMMIVD [GAA_Y438_R437H] | 0.639 |
| ILDEAYVMAGV [ERBB2_Y772] | 0.439 |
| HSDFQYGQRSQ [PKP2_Y168_S169G_YF] | 0.632 |
| DIMDLYNQPEL [IL36A_Y96_P101L] | 0.559 |
| VYSATYHPDHW [EFCAB12_Y544_P541S] | 1.06 |
| AVEDQYYCVDC [FHL1_Y207] | 0.53 |
| EEEFFYEKAIL [BCCIP_Y257] | 0.622 |
| YSMGCYEISLE [HMGCL_Y198_G203E] | 1.01 |
| DILASYLDKVR [KRT12_Y139_R135I] | 0.364 |
| AVARMYGVLPW [PLP1_Y207_D203V] | 0.411 |
| LVQAEYWRDPI [PPT1_Y185_H187R] | 0.891 |
| FGSVDYWEKFF [EEF1AKNMT_Y16] | 0.633 |
| AEVIWYKGDEE | 0.41 |
| EKNANYKEGTY [CLRN1_Y171_I168N] | 0.378 |
| QLPATYMNLGP [MST1R_Y1360] | 2.99 |

biological target: EPHB2 (UniProt P29323); test: as above
Sequence (P29323 whole entry, looked up): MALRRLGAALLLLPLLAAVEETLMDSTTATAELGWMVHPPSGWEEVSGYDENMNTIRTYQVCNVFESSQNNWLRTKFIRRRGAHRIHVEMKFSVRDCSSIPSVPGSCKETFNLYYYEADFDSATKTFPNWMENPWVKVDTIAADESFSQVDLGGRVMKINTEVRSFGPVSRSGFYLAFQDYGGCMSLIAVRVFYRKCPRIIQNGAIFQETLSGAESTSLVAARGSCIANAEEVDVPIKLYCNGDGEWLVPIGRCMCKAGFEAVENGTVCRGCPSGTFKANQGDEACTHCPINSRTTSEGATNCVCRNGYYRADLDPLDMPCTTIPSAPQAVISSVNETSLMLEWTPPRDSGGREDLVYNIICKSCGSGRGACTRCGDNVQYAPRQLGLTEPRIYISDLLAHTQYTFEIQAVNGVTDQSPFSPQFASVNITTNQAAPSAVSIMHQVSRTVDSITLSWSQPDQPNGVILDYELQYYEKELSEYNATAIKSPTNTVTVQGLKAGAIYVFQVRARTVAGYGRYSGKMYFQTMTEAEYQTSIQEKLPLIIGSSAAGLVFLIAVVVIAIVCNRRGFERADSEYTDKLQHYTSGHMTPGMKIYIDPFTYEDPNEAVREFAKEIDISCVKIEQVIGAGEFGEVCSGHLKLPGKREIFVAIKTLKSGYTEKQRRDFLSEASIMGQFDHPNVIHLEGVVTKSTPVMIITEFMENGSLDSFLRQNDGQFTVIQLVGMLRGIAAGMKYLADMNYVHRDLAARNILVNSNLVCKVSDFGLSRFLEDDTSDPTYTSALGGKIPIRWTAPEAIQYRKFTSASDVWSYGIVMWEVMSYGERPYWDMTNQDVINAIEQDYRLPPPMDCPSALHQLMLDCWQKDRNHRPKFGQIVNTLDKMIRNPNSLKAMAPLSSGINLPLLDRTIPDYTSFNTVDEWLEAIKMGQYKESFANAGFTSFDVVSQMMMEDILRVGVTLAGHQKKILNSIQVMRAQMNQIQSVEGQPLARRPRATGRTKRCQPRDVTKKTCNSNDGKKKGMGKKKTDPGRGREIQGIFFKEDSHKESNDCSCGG

| Sequence | phosphorylation enrichment |
| --- | --- |
| HQPGEYLFHAE [FLT3_Y416_I417L] | 0.724 |
| QGIIIYRAAFF [SLC25A4_Y187_YF] | 0.338 |
| ERDFTYEELLN [EIF2S2_Y176_YF] | 0.515 |
| LLNAIYLSAKW [SERPING1_Y294] | 0.794 |
| KPLMPSMRFSR [SMARCE1_Y73_Y73S_YF] | 0.399 |
| ACQSLYGGFVE [MVD_Y164_R161Q] | 1.53 |
| REATAYLHGRL [AGXT_Y297_A295T] | 0.662 |
| CTTIHYNYMCS [TP53_Y234_N239S] | 0.62 |
| MSYDRYMAVCH [OR2A5_Y123_I126V] | 0.751 |
| KILGTYFETGS [PAX2_Y72_R71T_YF] | 0.47 |
| RRGFLYDSDEE [MCM2_Y137_L135F] | 0.686 |
| FLAAIYPTVGQ [NF1_Y2508_T2507I_YF] | 0.358 |
| FSKDNYKRVTG [PANK2_Y405_YF] | 0.412 |
| YGLQAYTEVKT [ALDH2_Y502] | 0.67 |
| QGGRHYMMIVD [GAA_Y438_R437H] | 0.573 |
| ILDEAYVMAGV [ERBB2_Y772] | 0.487 |
| HSDFQYGQRSQ [PKP2_Y168_S169G_YF] | 0.628 |
| DIMDLYNQPEL [IL36A_Y96_P101L] | 0.613 |
| VYSATYHPDHW [EFCAB12_Y544_P541S] | 1.13 |
| AVEDQYYCVDC [FHL1_Y207] | 0.598 |
| EEEFFYEKAIL [BCCIP_Y257] | 0.648 |
| YSMGCYEISLE [HMGCL_Y198_G203E] | 0.907 |
| DILASYLDKVR [KRT12_Y139_R135I] | 0.437 |
| AVARMYGVLPW [PLP1_Y207_D203V] | 0.644 |
| LVQAEYWRDPI [PPT1_Y185_H187R] | 0.931 |
| FGSVDYWEKFF [EEF1AKNMT_Y16] | 0.587 |
| AEVIWYKGDEE | 0.483 |
| EKNANYKEGTY [CLRN1_Y171_I168N] | 0.387 |
| QLPATYMNLGP [MST1R_Y1360] | 0.548 |

biological target: FGFR1 (UniProt P11362); test: as above
Sequence (P11362 whole entry, looked up): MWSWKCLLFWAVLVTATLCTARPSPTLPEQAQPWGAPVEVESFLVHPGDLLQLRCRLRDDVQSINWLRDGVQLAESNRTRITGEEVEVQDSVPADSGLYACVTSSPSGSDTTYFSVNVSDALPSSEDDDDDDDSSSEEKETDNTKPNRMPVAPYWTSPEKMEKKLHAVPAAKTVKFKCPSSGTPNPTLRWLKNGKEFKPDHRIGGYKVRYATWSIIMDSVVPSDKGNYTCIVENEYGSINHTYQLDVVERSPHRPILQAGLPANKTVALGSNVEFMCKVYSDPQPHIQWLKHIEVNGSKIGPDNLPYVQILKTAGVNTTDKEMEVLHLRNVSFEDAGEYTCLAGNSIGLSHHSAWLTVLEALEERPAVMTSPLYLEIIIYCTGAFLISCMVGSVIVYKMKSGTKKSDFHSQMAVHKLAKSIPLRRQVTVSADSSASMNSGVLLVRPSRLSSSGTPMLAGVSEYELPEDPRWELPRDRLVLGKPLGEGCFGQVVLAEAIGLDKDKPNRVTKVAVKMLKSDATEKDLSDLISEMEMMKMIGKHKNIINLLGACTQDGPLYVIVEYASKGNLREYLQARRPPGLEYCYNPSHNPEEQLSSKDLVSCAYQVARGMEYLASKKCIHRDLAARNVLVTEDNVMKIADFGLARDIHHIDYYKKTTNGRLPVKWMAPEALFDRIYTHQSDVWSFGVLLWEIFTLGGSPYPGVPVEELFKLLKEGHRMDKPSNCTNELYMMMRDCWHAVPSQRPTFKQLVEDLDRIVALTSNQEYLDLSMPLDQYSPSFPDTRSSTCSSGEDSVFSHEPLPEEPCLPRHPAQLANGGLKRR

| Sequence | phosphorylation enrichment |
| --- | --- |
| HQPGEYLFHAE [FLT3_Y416_I417L] | 0.628 |
| QGIIIYRAAFF [SLC25A4_Y187_YF] | 0.327 |
| ERDFTYEELLN [EIF2S2_Y176_YF] | 0.527 |
| LLNAIYLSAKW [SERPING1_Y294] | 0.464 |
| KPLMPSMRFSR [SMARCE1_Y73_Y73S_YF] | 0.396 |
| ACQSLYGGFVE [MVD_Y164_R161Q] | 0.567 |
| REATAYLHGRL [AGXT_Y297_A295T] | 0.534 |
| CTTIHYNYMCS [TP53_Y234_N239S] | 0.647 |
| MSYDRYMAVCH [OR2A5_Y123_I126V] | 0.438 |
| KILGTYFETGS [PAX2_Y72_R71T_YF] | 0.814 |
| RRGFLYDSDEE [MCM2_Y137_L135F] | 0.429 |
| FLAAIYPTVGQ [NF1_Y2508_T2507I_YF] | 0.473 |
| FSKDNYKRVTG [PANK2_Y405_YF] | 0.407 |
| YGLQAYTEVKT [ALDH2_Y502] | 0.59 |
| QGGRHYMMIVD [GAA_Y438_R437H] | 1.01 |
| ILDEAYVMAGV [ERBB2_Y772] | 0.622 |
| HSDFQYGQRSQ [PKP2_Y168_S169G_YF] | 0.495 |
| DIMDLYNQPEL [IL36A_Y96_P101L] | 0.567 |
| VYSATYHPDHW [EFCAB12_Y544_P541S] | 1.33 |
| AVEDQYYCVDC [FHL1_Y207] | 5.7 |
| EEEFFYEKAIL [BCCIP_Y257] | 0.671 |
| YSMGCYEISLE [HMGCL_Y198_G203E] | 0.582 |
| DILASYLDKVR [KRT12_Y139_R135I] | 0.407 |
| AVARMYGVLPW [PLP1_Y207_D203V] | 0.524 |
| LVQAEYWRDPI [PPT1_Y185_H187R] | 1.71 |
| FGSVDYWEKFF [EEF1AKNMT_Y16] | 0.909 |
| AEVIWYKGDEE | 0.359 |
| EKNANYKEGTY [CLRN1_Y171_I168N] | 0.383 |
| QLPATYMNLGP [MST1R_Y1360] | 0.766 |
